# T1: human CD39 expressed on the cell surface (human, UniProt P49961 1-510)
# T1 construct: full-length human CD39 transfected into CHO-K1, or endogenous human CD39 on primary cells and cell lines, or human CD39 of knock-in mice; also called Human CD39-CHO-K1; cellular human CD39
# T1 sequence: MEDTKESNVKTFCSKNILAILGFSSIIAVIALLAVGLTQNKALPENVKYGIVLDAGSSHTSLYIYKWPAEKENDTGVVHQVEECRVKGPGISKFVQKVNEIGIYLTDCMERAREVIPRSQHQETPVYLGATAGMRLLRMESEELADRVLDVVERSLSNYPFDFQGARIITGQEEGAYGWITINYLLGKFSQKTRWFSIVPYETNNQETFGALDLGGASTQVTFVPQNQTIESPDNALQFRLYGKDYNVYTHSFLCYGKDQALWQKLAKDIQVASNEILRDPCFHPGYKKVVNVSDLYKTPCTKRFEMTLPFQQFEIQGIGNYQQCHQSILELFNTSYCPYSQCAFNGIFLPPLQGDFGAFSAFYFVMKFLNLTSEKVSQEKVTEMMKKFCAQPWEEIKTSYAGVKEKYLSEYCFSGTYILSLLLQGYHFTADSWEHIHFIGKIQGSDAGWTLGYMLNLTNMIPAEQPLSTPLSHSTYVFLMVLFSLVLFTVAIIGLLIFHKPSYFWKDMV
# T2: cynomolgus monkey CD39 expressed on HEK-293 cells (cynomolgus monkey, UniProt P49961 5-510 (human entry))
# T2 construct: also called Cynomolgus Monkey CD39-HEK293
# T2 chain: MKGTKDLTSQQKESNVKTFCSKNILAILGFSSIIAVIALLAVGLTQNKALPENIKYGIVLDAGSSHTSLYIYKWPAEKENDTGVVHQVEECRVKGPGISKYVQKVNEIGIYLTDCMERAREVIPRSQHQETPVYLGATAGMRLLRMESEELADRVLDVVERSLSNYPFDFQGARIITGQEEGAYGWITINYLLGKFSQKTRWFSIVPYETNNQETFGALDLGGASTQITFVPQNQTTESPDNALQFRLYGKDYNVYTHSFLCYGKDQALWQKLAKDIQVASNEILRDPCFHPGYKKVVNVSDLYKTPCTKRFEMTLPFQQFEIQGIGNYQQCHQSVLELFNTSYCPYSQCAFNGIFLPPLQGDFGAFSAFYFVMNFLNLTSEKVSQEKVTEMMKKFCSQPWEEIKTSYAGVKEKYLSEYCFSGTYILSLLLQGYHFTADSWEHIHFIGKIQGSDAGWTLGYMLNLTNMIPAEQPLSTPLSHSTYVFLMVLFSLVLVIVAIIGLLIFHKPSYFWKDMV
# T3: soluble His-tagged human CD39 ECD protein (human, UniProt P49961 38-478)
# T3 construct: also called human CD39 ECD His-tagged antigen; Sino Biological Cat. No. 16020-H08B
# T3 sequence: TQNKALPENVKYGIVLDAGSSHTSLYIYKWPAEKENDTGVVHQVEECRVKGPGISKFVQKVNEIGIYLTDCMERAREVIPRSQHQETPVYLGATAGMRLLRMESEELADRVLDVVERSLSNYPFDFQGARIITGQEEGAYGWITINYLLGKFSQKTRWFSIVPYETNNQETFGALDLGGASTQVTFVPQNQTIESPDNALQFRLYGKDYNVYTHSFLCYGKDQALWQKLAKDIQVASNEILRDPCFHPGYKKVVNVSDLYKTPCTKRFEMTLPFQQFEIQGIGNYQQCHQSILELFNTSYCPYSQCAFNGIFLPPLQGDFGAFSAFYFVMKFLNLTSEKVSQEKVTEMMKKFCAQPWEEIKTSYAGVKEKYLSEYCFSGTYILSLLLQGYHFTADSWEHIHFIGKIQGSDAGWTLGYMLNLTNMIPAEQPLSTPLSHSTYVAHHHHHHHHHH
# What was measured:
# [1] = target: T1, human CD39 expressed on the cell surface; experiment: FACS on CHO-K1 cells overexpressing human CD39
# [2] = target: T1, human CD39 expressed on the cell surface; experiment: flow cytometry on purified human CD14+ monocytes, 400 uM ATP
# [3] = target: T2, cynomolgus monkey CD39 expressed on …; experiment: FACS on HEK293 cells overexpressing cynomolgus CD39
# [4] = target: T1, human CD39 expressed on the cell surface; experiment: flow cytometry on purified human CD14+ monocytes, 0 uM ATP
# [5] = target: T1, human CD39 expressed on the cell surface; experiment: cell-based or functional assay
# [6] = target: T1, human CD39 expressed on the cell surface; experiment: cell-based or functional assay; remark: listed apart in the source
# [7] = target: T1, human CD39 expressed on the cell surface; experiment: cell-based or functional assay; remark: listed apart in the source
# [8] = target: T1, human CD39 expressed on the cell surface; experiment: cell-based or functional assay; remark: listed apart in the source
# [9] = target: T3, soluble His-tagged human CD39 ECD …; experiment: SPR (Biacore 8K), antibody captured via anti-human Fc, CD39 ECD analyte
# [10] = target: T1, human CD39 expressed on the cell surface; experiment: cell-based or functional assay; remark: listed apart in the source
binder,measurement,setting,value
"hu39.5_IGG4.P (antibody, human IgG4 S228P, kappa, humanized variant of antibody 39 (VH3 + VL1 with I2T), IgG4 (S228P)) heavy: not shown light: DTVLTQSPASLAVSPGQRATITCRASEGVKSYMHWYQQKPGQPPKLLIYKASNLASGVPARFSGSGSGTDFTLTINPVEADDTANYYCQQSWNDPTFGQGTKLEIKRTVAAPSVFIFPPSDEQLKSGTASVVCLLNNFYPREAKVQWKVDNALQSGNSQESVTEQDSKDSTYSLSSTLTLSKADYEKHKVYACEVTHQGLSSPVTKSFNRGEC",EC50,[1],0.44 nM
same,EC50,[2],10 nM
same,EC50,[3],0.088 nM
same,EC50,[4],3.9 nM
same,Human THP-1 CD39 inhibition IC50,[5],0.1 nM
same,"IC50, CD39 enzymatic inhibition on human monocytes, 20 uM ATP",[6],0.15 nM
same,"Max Inhibition (%), human monocytes, 20 uM ATP",[6],72%
same,"IC50, CD39 enzymatic inhibition on human monocytes, 400 uM ATP",[7],0.2 nM
same,"Max Inhibition (%), human monocytes, 400 uM ATP",[7],60%
same,"IC50, CD39 enzymatic inhibition on SK-MEL-5 cells, 20 uM ATP",[8],0.14 nM
same,"Max Inhibition (%), SK-MEL-5 cells",[8],66%
same,Kd,[9],0.121 nM
same,"IC50, CD39 enzymatic inhibition on THP-1 cells, 20 uM ATP",[10],0.062 nM
same,"Max Inhibition (%), THP-1 cells",[10],83%

# From patent US20250084178A1 (ARCUS BIOSCIENCES, published 2025)
